Results: US20120237966A1

Target: GI (K607T)-mCherry-CAAX (Arabidopsis thaliana) (UniProt Q9SQI2)
Assay: cell-based or functional assay

Sequence of UniProt Q9SQI2 (Q9SQI2 other isoform, or with tags, fused parts or gaps K607T K607T): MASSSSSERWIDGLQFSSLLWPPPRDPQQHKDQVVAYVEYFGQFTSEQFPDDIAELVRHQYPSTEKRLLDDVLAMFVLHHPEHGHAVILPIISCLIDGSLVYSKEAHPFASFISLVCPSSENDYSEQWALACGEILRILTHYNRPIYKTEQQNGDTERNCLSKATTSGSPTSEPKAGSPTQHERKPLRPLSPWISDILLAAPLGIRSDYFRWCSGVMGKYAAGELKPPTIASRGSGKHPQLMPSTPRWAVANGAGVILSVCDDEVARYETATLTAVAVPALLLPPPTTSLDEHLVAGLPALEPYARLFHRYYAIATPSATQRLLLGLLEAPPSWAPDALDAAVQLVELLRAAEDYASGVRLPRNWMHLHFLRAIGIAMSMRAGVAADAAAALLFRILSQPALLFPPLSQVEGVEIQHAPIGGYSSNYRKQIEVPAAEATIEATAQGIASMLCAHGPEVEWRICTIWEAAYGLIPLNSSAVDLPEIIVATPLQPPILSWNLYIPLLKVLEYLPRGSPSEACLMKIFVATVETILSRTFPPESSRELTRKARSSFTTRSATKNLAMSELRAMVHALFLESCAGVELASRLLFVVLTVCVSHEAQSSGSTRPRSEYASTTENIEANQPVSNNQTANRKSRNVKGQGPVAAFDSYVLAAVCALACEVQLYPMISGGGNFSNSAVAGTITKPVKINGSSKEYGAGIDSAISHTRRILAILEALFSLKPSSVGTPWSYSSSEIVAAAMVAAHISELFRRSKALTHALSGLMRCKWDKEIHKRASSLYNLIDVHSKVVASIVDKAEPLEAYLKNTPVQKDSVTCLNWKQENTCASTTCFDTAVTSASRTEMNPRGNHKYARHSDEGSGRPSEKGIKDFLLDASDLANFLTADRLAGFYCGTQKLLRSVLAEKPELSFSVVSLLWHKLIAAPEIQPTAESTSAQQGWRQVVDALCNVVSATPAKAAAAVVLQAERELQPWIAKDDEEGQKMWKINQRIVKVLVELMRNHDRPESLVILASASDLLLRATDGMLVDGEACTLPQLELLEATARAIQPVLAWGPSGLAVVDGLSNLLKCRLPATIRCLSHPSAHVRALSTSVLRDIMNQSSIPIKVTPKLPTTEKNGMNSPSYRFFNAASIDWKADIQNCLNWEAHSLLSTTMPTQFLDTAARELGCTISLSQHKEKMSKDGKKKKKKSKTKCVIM

| percentage of cells with lamellipodia, increase upon illumination [%] | Substance |
| --- | --- |
| 87 | NES-FKF1(K15T)-YFP-linker-Rac1ca (FKF1-Rac) G128D (from UniProt P63000 1-188) |
| 46 | NES-FKF1(K15T)-YFP-linker-Rac1ca (FKF1-Rac) WT (from UniProt P63000 1-188) |
